Laboratory results: paper doi:10.1101/2025.09.11.675134, “Biodistribution-Driven Discovery Identifies a Glycosidase-Cleavable Linker to Reprogram Radiotheranostics” (bioRxiv, 2025)

Tested on: AR42J xenografts
Assay: Dosimetry estimates of 225Ac-labeled variants from biodistribution data
Type: in vivo, athymic nu/nu mice
Source text: To evaluate the organ-level radiation absorbed dose resulting from different DOTA-TATE derivatives, we calculated the total effective dose per unit of injected activity (Eff Dose/IA, mSv/MBq) for ^225Ac-labeled variants based on biodistribution data in AR42J xenograft-bearing mice (Tables S5).
Estimated absorbed doses for individual organs for ^225Ac- and ^86Y-labeled DOTA-TATE variants were derived from residence times calculated using %IA/g data from biodistribution studies. The time–activity curves incorporated data from both radionuclides to provide complete coverage of early and late time points. Details of the dosimetry methodology, including time–activity curve construction, integration approach, decay assumptions, and conversion to effective dose, are provided in the Supplementary Information.
Dosimetry: The dosimetry was calculated by measuring the residence time per gram for each organ using the percent injected activity per gram (%IA/g) data collected for the biodistribution study. Because two biodistribution data sample groups were collected, one for the 86Y and the other for the 225Ac variant of the three DOTA-TATE variants (DOTA-TATE, DOTA-MVK(ε)- TATE, and DOTA-β-Gal-TATE) the %IA/g time activity curves (TAC) of the 86Y variant were merged with the 225Ac TACs. This was possible because of the difference in half lives between 86Y and 225Ac being 14.74 and 237.8 hours respectively setting the measurement time points to be 1, 4 and 24 hours for the 86Y ligands and 24, 96 hours for 225Ac. The full time activity curve is thus made up of the 1 and 4 hour time points of the 86Y %IA/g data points, an average of the common 24 hour time point of the 86Y and 225Ac %IA/g data points and the last 96 hour %IA/g time point of the 225Ac samples. The full 4 time points of 1, 4, 24, and 96 hours making up the […]
from which the residence times were calculated.
The integration of the TAC was performed using trapezoidal interpolation between time points.
The first time point assumed constant activity and a decay curve with the half life of the radioisotope was used to estimate activity beyond 96 hours. The average %IA/g was used for each tissue sample for each time point and the resulting standard deviation of the average was then used as the error estimate per time point to propagate through the residence time calculation.
Using the residence time for each TAC, the dose was calculated by looking up the dose per decay for each alpha, beta (positron and electron from nuclear beta decay) and electron emission listed in the nuclear data sheets provided by the Brookhaven National Laboratory National Nuclear Data Center. Since the 225Ac decays via a complicated decay chain, it is assumed that the dose from the daughters remains in the tissue assuming no biological dissemination once the 225Ac decays breaking the bonds of the DOTA-TATE ligand. The following mean dose per decay were used. For 225Ac, 27.58MeV/Bq-s for alpha emissions, 1.33MeV/Bq-s for beta plus electron emissions. For 86Y, 0.219 MeV/Bq-s for beta and electron emissions. Gamma emissions were ignored because of the small size of the tissue samples have small gamma absorption effects which would contribute negligibly to the dose calculation. Furthermore, dosimetry estimate […]
inter organ activity can be calculated(62).
To estimate the effective dose in mSv/MBq, a radiological factor of 5 was used to multiply the dose calculated from the alpha ionizations while a factor of 1 was used for the beta and electron ionizations to convert from mGy/MBq to mSv/MBq (63, 64).

[1] = 225Ac-labeled, AR42J xenografts, from biodistribution time-activity curves, alpha factor 5, mean, n = 4–5
[2] = 225Ac-labeled, dosimetry estimate
[3] = absorbed-dose estimate at 148 kBq per mouse

Compound	Absorbed dose to kidney (mouse, in vivo) [Gy]	Absorbed dose to tumor (mouse, in vivo) [Gy]	Total effective dose per injected activity, Blood (mouse, in vivo) [mSv/MBq]	Total effective dose per injected activity, Femur (mouse, in vivo) [mSv/MBq]	Total effective dose per injected activity, Heart (mouse, in vivo) [mSv/MBq]	Total effective dose per injected activity, Intestine (mouse, in vivo) [mSv/MBq]	Total effective dose per injected activity, Kidney (mouse, in vivo)	Total effective dose per injected activity, Liver (mouse, in vivo) [mSv/MBq]	Total effective dose per injected activity, Lung (mouse, in vivo) [mSv/MBq]	Total effective dose per injected activity, Muscle (mouse, in vivo) [mSv/MBq]	Total effective dose per injected activity, Spleen (mouse, in vivo) [mSv/MBq]	Total effective dose per injected activity, Tumor (mouse, in vivo)	also measured
CSCC[C@H](NC(=O)CN1CCN(CC(=O)O)CCN(CC(=O)O)CCN(CC(=O)O)CC1)C(=O)N[C@H](C(=O)N[C@@H](CCCCNC(=O)CCCC(=O)N[C@H](Cc1ccccc1)C(=O)N[C@H]1CSSC[C@@H](C(=O)N[C@H](C(=O)O)[C@@H](C)O)NC(=O)[C@H]([C@@H](C)O)NC(=O)[C@H](CCCCN)NC(=O)[C@@H](Cc2c[nH]c3ccccc23)NC(=O)[C@H](Cc2ccc(O)cc2)NC1=O)C(=O)O)C(C)C [^225Ac-DOTA-MVK(ε)-TATE, metal not drawn]	5.7	20.4	3.44E+03	4.19E+04	1.06E+04	2.36E+04	1.85 × 10^5 mSv/MBq	1.02E+05	1.95E+04	7.16E+03	2.55E+04	6.64 × 10^5 mSv/MBq	Reduction of kidney dose versus 225Ac-DOTA-TATE (mouse, in vivo): 65 to 70%
C[C@@H](O)[C@H](NC(=O)[C@@H]1CSSC[C@H](NC(=O)[C@@H](Cc2ccccc2)NC(=O)CN2CCN(CC(=O)O)CCN(CC(=O)O)CCN(CC(=O)O)CC2)C(=O)N[C@@H](Cc2ccc(O)cc2)C(=O)N[C@H](Cc2c[nH]c3ccccc23)C(=O)N[C@@H](CCCCN)C(=O)N[C@@H]([C@@H](C)O)C(=O)N1)C(=O)O [^225Ac-DOTA-TATE, metal not drawn, reference compound]	16.2	13.2	4.00E+03	5.86E+04	1.42E+04	3.04E+04	5.27 × 10^5 mSv/MBq	6.47E+04	3.85E+04	9.33E+03	3.41E+04	4.30 × 10^5 mSv/MBq	–
C[C@@H](O)[C@H](NC(=O)[C@@H]1CSSC[C@H](NC(=O)[C@@H](Cc2ccccc2)NC(=O)CCCC(=O)Nc2cc(COC(=O)N(C)CCNC(=O)CN3CCN(CC(=O)O)CCN(CC(=O)O)CCN(CC(=O)O)CC3)ccc2O[C@@H]2O[C@H](CO)[C@H](O)[C@H](O)[C@H]2O)C(=O)N[C@@H](Cc2ccc(O)cc2)C(=O)N[C@H](Cc2c[nH]c3ccccc23)C(=O)N[C@@H](CCCCN)C(=O)N[C@@H]([C@@H](C)O)C(=O)N1)C(=O)O [^225Ac-DOTA-β-Gal-TATE, metal not drawn]	–	–	–	–	–	–	–	–	–	–	–	–	Total effective dose per injected activity, Femur [1]: 7.96E+04 mSv/MBq; Total effective dose per injected activity, Heart [1]: 1.20E+04 mSv/MBq; Total effective dose per injected activity, Intestine [1]: 2.87E+04 mSv/MBq; Total effective dose per injected activity, Kidney [1]: 1.56 × 10^5 mSv/MBq; Total effective dose per injected activity, Liver [1]: 1.34E+05 mSv/MBq; Total effective dose per injected activity, Lung [1]: 1.91E+04 mSv/MBq; Total effective dose per injected activity, Muscle [1]: 1.02E+04 mSv/MBq; Total effective dose per injected activity, Spleen [1]: 3.37E+04 mSv/MBq; Total effective dose per injected activity, Tumor [1]: 1.06 × 10^6 mSv/MBq; Total effective dose per injected activity, Blood (225Ac-labeled, AR42J xenografts, from merged 86Y/225Ac time-activity curves (1, 4, 24, 96 h), alpha factor 5, mean, n = 4–5): 3.93E+03 mSv/MBq; Tumor dose higher than that of 225Ac-DOTA-MVK(ε)-TATE [2]: 1.59 fold; Tumor dose higher than that of 225Ac-DOTA-TATE [2]: 2.46 fold; Absorbed dose to kidney [3]: 4.8 Gy; Absorbed dose to tumor [3]: 32.5 Gy; Reduction of kidney dose versus 225Ac-DOTA-MVK(ε)-TATE [3]: ~15%
